We go through 4 molecules from PMC7247549, “Biochemical Convergence of Mitochondrial Hsp70 System Specialized in Iron–Sulfur Cluster Biogenesis” (International Journal of Molecular Sciences, 2020).

Data set [1] concerns the target Isu1-GST fusion protein (S. cerevisiae) (UniProt Q03020). Nature of the data set: pull-down; Isu1-GST (30 μM) incubated with increasing Ssq1, 4 mM ADP, PD buffer (40 mM HEPES-KOH pH 7.5, 100 mM KCl, 1 mM DTT, 10 mM MgCl2, 5% glycerol), 15 min at 25 °C, then glutathione resin; SDS-PAGE, Coomassie, densitometry, Michaelis-Menten hyperbolic fit.
In data set [2] the target is T1, Ssq1 (S. cerevisiae).
T1 sequence (Q05931 whole entry, looked up): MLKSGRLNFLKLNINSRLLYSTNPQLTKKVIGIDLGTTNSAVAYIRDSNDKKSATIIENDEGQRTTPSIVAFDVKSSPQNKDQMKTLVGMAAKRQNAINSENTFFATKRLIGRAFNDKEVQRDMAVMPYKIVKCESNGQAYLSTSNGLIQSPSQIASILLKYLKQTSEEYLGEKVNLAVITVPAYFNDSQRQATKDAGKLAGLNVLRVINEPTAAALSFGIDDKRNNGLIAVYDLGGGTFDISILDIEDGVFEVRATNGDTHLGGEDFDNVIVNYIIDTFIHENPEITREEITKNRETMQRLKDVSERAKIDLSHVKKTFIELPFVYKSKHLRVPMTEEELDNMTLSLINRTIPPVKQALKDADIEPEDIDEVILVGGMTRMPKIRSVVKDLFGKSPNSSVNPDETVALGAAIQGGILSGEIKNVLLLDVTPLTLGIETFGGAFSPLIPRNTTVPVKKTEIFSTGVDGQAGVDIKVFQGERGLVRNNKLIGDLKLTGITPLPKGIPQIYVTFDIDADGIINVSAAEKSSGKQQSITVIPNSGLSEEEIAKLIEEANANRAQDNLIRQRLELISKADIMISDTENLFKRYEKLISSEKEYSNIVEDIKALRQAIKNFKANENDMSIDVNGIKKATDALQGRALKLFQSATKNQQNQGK

The target of data set [3] is T1, Ssq1 (S. cerevisiae). The following applies: scale: fold.
Substrate in data set [4]: Nc1ncnc2c1ncn2[C@@H]1O[C@H](COP(=O)(O)OP(=O)(O)OP(=O)(O)O)[C@@H](O)[C@H]1O
Nature of the data set: steady-state ATPase, PK/LDH NADH-coupled assay. The following applies: 2.5 μM Ssq1 with 2.5 μM nucleotide exchange factor Mge1, no Isu1 or Hsc20 mentioned, pH 7.5, 150 mM KCl, 20 mM Mg acetate, 23 °C. The class given is biochemical, Saccharomyces cerevisiae.

Substrate in data set [5]: Nc1ncnc2c1ncn2[C@@H]1O[C@H](COP(=O)(O)OP(=O)(O)OP(=O)(O)O)[C@@H](O)[C@H]1O
Nature of the data set: purified protein. The following applies: 1 μM HscA, no exchange factor, no IscU or HscB mentioned, pH 7.5, 150 mM KCl, 20 mM Mg acetate, 23 °C.

Isu1-GST fusion protein (S. cerevisiae), sequence (Q03020 28-165): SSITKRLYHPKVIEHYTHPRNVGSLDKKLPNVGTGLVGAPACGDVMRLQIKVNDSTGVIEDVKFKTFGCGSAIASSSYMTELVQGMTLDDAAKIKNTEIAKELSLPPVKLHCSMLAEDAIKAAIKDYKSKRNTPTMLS

For the molecule Ssq1 (natural protein), in data set [1], the Km (with ADP) stood at 2.18 µM.

B1: Hsc20 (natural protein)
chain: TSTFYELFPKTFPKKLPIWTIDQSRLRKEYRQLQAQHHPDMAQQGSEQSSTLNQAYHTLKDPLRRSQYMLKLLRNIDLTQEQTSNEVTTSDPQLLLKVLDIHDELSQMDDEAGVKLLEKQNKERIQDIEAQLGQCYNDKDYAAAVKLTVELKYWYNLAKAFKDWAPGKQLEMNH
As to B1, the apparent Km of Hsc20 for stimulation of Ssq1 ATPase activity (radioactive assay, 10 μM Isu1, 0.5 μM Mge1), compared with that of HscB for HscA (fold (affinity, against HscA for HscB)) in data set [2] was 8. Also, the apparent Km of Hsc20 (0.0025-0.25 μM) for stimulating the pull-down of Ssq1 with Isu1-GST in ATP, compared with that of HscB in data set [3] came to 4.

B2: Ssq1 (Saccharomyces cerevisiae S288C) (protein)
chain: PQLTKKVIGIDLGTTNSAVAYIRDSNDKKSATIIENDEGQRTTPSIVAFDVKSSPQNKDQMKTLVGMAAKRQNAINSENTFFATKRLIGRAFNDKEVQRDMAVMPYKIVKCESNGQAYLSTSNGLIQSPSQIASILLKYLKQTSEEYLGEKVNLAVITVPAYFNDSQRQATKDAGKLAGLNVLRVINEPTAAALSFGIDDKRNNGLIAVYDLGGGTFDISILDIEDGVFEVRATNGDTHLGGEDFDNVIVNYIIDTFIHENPEITREEITKNRETMQRLKDVSERAKIDLSHVKKTFIELPFVYKSKHLRVPMTEEELDNMTLSLINRTIPPVKQALKDADIEPEDIDEVILVGGMTRMPKIRSVVKDLFGKSPNSSVNPDETVALGAAIQGGILSGEIKNVLLLDVTPLTLGIETFGGAFSPLIPRNTTVPVKKTEIFSTGVDGQAGVDIKVFQGERGLVRNNKLIGDLKLTGITPLPKGIPQIYVTFDIDADGIINVSAAEKSSGKQQSITVIPNSGLSEEEIAKLIEEANANRAQDNLIRQRLELISKADIMISDTENLFKRYEKLISSEKEYSNIVEDIKALRQAIKNFKANENDMSIDVNGIKKATDALQGRALKLFQSATKNQQNQGK
One may read the Km as the concentration of substrate that gives half-maximal velocity. For B2, the Km in data set [4] is 25 µM.

B3: HscA (Escherichia coli K-12) (protein)
chain: MALLQISEPGLSAAPHQRRLAAGIDLGTTNSLVATVRSGQAETLADHEGRHLLPSVVHYQQQGHSVGYDARTNAALDTANTISSVKRLMGRSLADIQQRYPHLPYQFQASENGLPMIETAAGLLNPVRVSADILKALAARATEALAGELDGVVITVPAYFDDAQRQGTKDAARLAGLHVLRLLNEPTAAAIAYGLDSGQEGVIAVYDLGGGTFDISILRLSRGVFEVLATGGDSALGGDDFDHLLADYIREQAGIPDRSDNRVQRELLDAAIAAKIALSDADSVTVNVAGWQGEISREQFNELIAPLVKRTLLACRRALKDAGVEADEVLEVVMVGGSTRVPLVRERVGEFFGRPPLTSIDPDKVVAIGAAIQADILVGNKPDSEMLLLDVIPLSLGLETMGGLVEKVIPRNTTIPVARAQDFTTFKDGQTAMSIHVMQGERELVQDCRSLARFALRGIPALPAGGAHIRVTFQVDADGLLSVTAMEKSTGVEASIQVKPSYGLTDSEIASMIKDSMSYAEQDVKARMLAEQKVEAARVLESLHGALAADAALLSAAERQVIDDAAAHLSEVAQGDDVDAIEQAIKNVDKQTQDFAARRMDQSVRRALKGHSVDEV
B3: in data set [5], the Km is 28 µM.
